Measured values from ChEMBL document CHEMBL1155741, “Ellagitannins and hexahydroxydiphenoyl esters as inhibitors of vertebrate squalene epoxidase” (J Nat Prod, 2001).

Substrate: CC(C)=CCC/C(C)=C/CC/C(C)=C/CC/C=C(\C)CC/C=C(\C)CCC=C(C)C
Assay: Activity of C-terminal hexahistidine-tagged rat recombinant squalene epoxidase without N-terminal putative membrane domain expressed in Escherichia coli

B1: Squalene monooxygenase (Rattus norvegicus), P52020 (protein)
chain: MWTFLGIATFTYFYKKCGDVTLANKELLLCVLVFLSLGLVLSYRCRHRNGGLLGRHQSGSQFAAFSDILSALPLIGFFWAKSPPESEKKEQLESKRRRKEVNLSETTLTGAATSVSTSSVTDPEVIIIGSGVLGSALATVLSRDGRTVTVIERDLKEPDRILGECLQPGGYRVLRELGLGDTVESLNAHHIHGYVIHDCESRSEVQIPYPVSENNQVQSGVAFHHGKFIMSLRKAAMAEPNVKFIEGVVLRLLEEDDAVIGVQYKDKETGDTKELHAPLTVVADGLFSKFRKNLISNKVSVSSHFVGFIMKDAPQFKANFAELVLVDPSPVLIYQISPSETRVLVDIRGELPRNLREYMTEQIYPQIPDHLKESFLEACQNARLRTMPASFLPPSSVNKRGVLLLGDAYNLRHPLTGGGMTVALKDIKIWRQLLKDIPDLYDDAAIFQAKKSFFWSRKRSHSFVVNVLAQALYELFSATDDSLRQLRKACFLYFKLGGECLTGPVGLLSILSPDPLLLIRHFFSVAVYATYFCFKSEPWATKPRALFSSGAILYKACSIIFPLIYSEMKYLVH
- Km: 3.8 µM
- kcat: 0.0683 s⁻¹
